{
  "source": "paper PMC2713385",
  "about": "(Journal of molecular biology, 2009)",
  "molecules": {"B1": {"name": "bacteriophage P22 tail needle gp26 (natural protein, UniProt P35837 1-233, looked up)", "chain": "MADPSLNNPVVIQATRLDASILPRNVFSKSYLLYVIAQGTDVGAIAGKANEAGQGAYDAQVKNDEQDVELADHEARIKQLRIDVDDHESRITANTKAITALNVRVTTAEGEIASLQTNVSALDGRVTTAENNISALQADYVSKTATTSQSLASPLNVTTSYSVGGKKVLGARQTGWTAATGTANKGVFDADLTFAVSDTYTQSEIQAIANALITERRRTKALEDALRAHGLID"}},
  "key": {"[1]": {"molecular_target": "bacteriophage HK620 gp26-like tail needle (bacteriophage HK620)", "assay": "AUC"}, "[2]": {"molecular_target": "bacteriophage HK620 gp26-like tail needle (bacteriophage HK620)", "assay": "SDS-PAGE"}, "[3]": {"molecular_target": "bacteriophage Sf6 gp26-like tail needle (bacteriophage Sf6)", "assay": "AUC"}, "[4]": {"molecular_target": "bacteriophage Sf6 gp26-like tail needle (bacteriophage Sf6)", "assay": "SDS-PAGE"}, "[5]": {"molecular_target": "phage HS1 gp26-like tail needle (prophage HS1 of E. coli strain HS)", "assay": "AUC"}, "[6]": {"molecular_target": "phage HS1 gp26-like tail needle (prophage HS1 of E. coli strain HS)", "assay": "SDS-PAGE"}, "[7]": {"molecular_target": "the molecule itself", "assay": "AUC"}},
  "data": [
    {"molecule": "bacteriophage HK620 gp26-like tail needle (natural protein)", "values": [
      {"measurement": "stoichiometry N", "setting": "[1]", "result": 3},
      {"measurement": "stoichiometry N", "setting": "[2]", "result": 3}
    ]},
    {"molecule": "bacteriophage Sf6 gp26-like tail needle (natural protein)", "values": [
      {"measurement": "stoichiometry N", "setting": "[3]", "result": 3},
      {"measurement": "stoichiometry N", "setting": "[4]", "result": 3}
    ]},
    {"molecule": "phage HS1 gp26-like tail needle (natural protein)", "values": [
      {"measurement": "stoichiometry N", "setting": "[5]", "result": 3},
      {"measurement": "stoichiometry N", "setting": "[6]", "result": 3}
    ]},
    {"molecule": "B1", "values": [
      {"measurement": "stoichiometry N", "setting": "[7]", "result": 3}
    ]}
  ]
}
